Where two headings read alike, the source gives them in different places.
Legend:
active hMMP-9(cat)_Y420A = active hMMP-9(cat)_Y420A (UniProt P14780 107-449); assay: substrate peptide enzyme inhibition
active hMMP-9(cat)_V398A = active hMMP-9(cat)_V398A (UniProt P14780 107-449); assay: substrate peptide enzyme inhibition
active hMMP-9(cat)_M422I = active hMMP-9(cat)_M422I (UniProt P14780 107-449); assay: substrate peptide enzyme inhibition
active hMMP-9(cat)_L397A = active hMMP-9(cat)_L397A (UniProt P14780 107-449); assay: substrate peptide enzyme inhibition
active hMMP-9(cat)_F192A = active hMMP-9(cat)_F192A (UniProt P14780 107-449); assay: substrate peptide degradation inhibition
active hMMP-9(cat)_F110A = active hMMP-9(cat)_F110A (UniProt P14780 107-449); assay: substrate peptide degradation inhibition
active hMMP-9(cat)_D185A = active hMMP-9(cat)_D185A (UniProt P14780 107-449); assay: substrate peptide degradation inhibition
active hMMP-9(cat)_P193A = active hMMP-9(cat)_P193A (UniProt P14780 107-449); assay: substrate peptide degradation inhibition
active hMMP-9(cat)_Y179A = active hMMP-9(cat)_Y179A (UniProt P14780 107-449); assay: substrate peptide degradation inhibition
active hMMP-9(cat)_Q199G = active hMMP-9(cat)_Q199G (UniProt P14780 107-449); assay: substrate peptide degradation inhibition
active hMMP-9(cat)_His6 [1] = molecular target: T1, active hMMP-9(cat)_His6 (UniProt P14780 107-449); assay: enzyme inhibition; substrate peptide
active hMMP-9(cat)_His6 [2] = molecular target: T1, active hMMP-9(cat)_His6; assay: enzyme inhibition; substrate peptide; remark: listed apart in the source
active hMMP-9(cat)_L187A = active hMMP-9(cat)_L187A (UniProt P14780 107-449); assay: substrate peptide degradation inhibition
active hMMP-9(cat)_L187A, sequence (P14780 107-449 L187A): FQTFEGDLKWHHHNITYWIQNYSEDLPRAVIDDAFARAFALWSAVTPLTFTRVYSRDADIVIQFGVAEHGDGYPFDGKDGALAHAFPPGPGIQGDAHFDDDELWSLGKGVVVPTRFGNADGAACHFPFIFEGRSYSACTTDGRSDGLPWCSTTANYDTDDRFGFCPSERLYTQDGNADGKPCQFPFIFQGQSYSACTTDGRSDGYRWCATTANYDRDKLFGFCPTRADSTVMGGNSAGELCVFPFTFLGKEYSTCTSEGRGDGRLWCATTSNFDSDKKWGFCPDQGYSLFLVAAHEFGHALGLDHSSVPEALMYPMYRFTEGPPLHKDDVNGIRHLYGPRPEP

active hMMP-9(cat)_Y179A, sequence (P14780 107-449 Y179A): as the sequence (P14780 107-449 L187A) above, with Y73A, A81L counted along it
active hMMP-9(cat)_Q199G, sequence (P14780 107-449 Q199G): as the sequence (P14780 107-449 L187A) above, with A81L, Q93G counted along it
active hMMP-9(cat)_F192A, sequence (P14780 107-449 F192A): as the sequence (P14780 107-449 L187A) above, with A81L, F86A counted along it
active hMMP-9(cat)_F110A, sequence (P14780 107-449 F110A): as the sequence (P14780 107-449 L187A) above, with F4A, A81L counted along it
active hMMP-9(cat)_D185A, sequence (P14780 107-449 D185A): as the sequence (P14780 107-449 L187A) above, with D79A, A81L counted along it
active hMMP-9(cat)_P193A, sequence (P14780 107-449 P193A): as the sequence (P14780 107-449 L187A) above, with A81L, P87A counted along it
active hMMP-9(cat)_Y420A, sequence (P14780 107-449 Y420A): as the sequence (P14780 107-449 L187A) above, with A81L, Y314A counted along it
active hMMP-9(cat)_M422I, sequence (P14780 107-449 M422I): as the sequence (P14780 107-449 L187A) above, with A81L, M316I counted along it
active hMMP-9(cat)_V398A, sequence (P14780 107-449 V398A): as the sequence (P14780 107-449 L187A) above, with A81L, V292A counted along it
T1 sequence (P14780 107-449): as the sequence (P14780 107-449 L187A) above, with A81L counted along it
active hMMP-9(cat)_L397A, sequence (P14780 107-449 L397A): as the sequence (P14780 107-449 L187A) above, with A81L, L291A counted along it

B1: active MMP-9-binding peptide M91011 (designed binder)
chain: GSGMKETAAAKFERQHMDSPDLGTDDDDKAMADIGSANSDPQFGLFSKYRTPNCMMYKYAQCSHKSQPVCGSDMSTYANECTLCMKIREGGHNIKIIRNGPCGASAAA
IC50 (active hMMP-9(cat)_Y420A): 33 nM
IC50 (active hMMP-9(cat)_V398A): 79 nM
IC50 (active hMMP-9(cat)_M422I): 43 nM
IC50 (active hMMP-9(cat)_L397A): 57 nM
IC50 (active hMMP-9(cat)_F192A): 83 nM
IC50 (active hMMP-9(cat)_F110A): 7.3 nM
IC50 (active hMMP-9(cat)_D185A): 310 nM
IC50 (active hMMP-9(cat)_P193A): 110 nM
IC50 (active hMMP-9(cat)_Y179A): 81 nM
IC50 (active hMMP-9(cat)_Q199G): 22 nM

B2: active MMP-9-binding peptide M91002 (designed binder)
chain: GSGMKETAAAKFERQHMDSPDLGTDDDDKAMADIGSANSDPQFGLFSKYRTPNCRTGRGPACQMGFQPVCGSDMSTYANECTLCMKIREGGHNIKIIRNGPCGASAAA
IC50 (active hMMP-9(cat)_His6 [1]): 5 nM

B3: active MMP-9-binding peptide M91005 (designed binder)
chain: GSGMKETAAAKFERQHMDSPDLGTDDDDKAMADIGSANSDPQFGLFSKYRTPNCRKRGGPSCQMSYNPVCGSDMSTYANECTLCMKIREGGHNIKIIRNGPCGASAAA
IC50 (active hMMP-9(cat)_Y420A): 54 nM
IC50 (active hMMP-9(cat)_V398A): 39 nM
IC50 (active hMMP-9(cat)_M422I): 45 nM
IC50 (active hMMP-9(cat)_L397A): 37 nM
IC50 (active hMMP-9(cat)_His6 [2]): 1.1 nM
IC50 (active hMMP-9(cat)_F192A): > 1000 nM
IC50 (active hMMP-9(cat)_F110A): 69 nM
IC50 (active hMMP-9(cat)_L187A): 120 nM
IC50 (active hMMP-9(cat)_D185A): 29 nM
IC50 (active hMMP-9(cat)_P193A): 13 nM
IC50 (active hMMP-9(cat)_Y179A): 55 nM
IC50 (active hMMP-9(cat)_Q199G): 40 nM
